Results from patent US20160279215A1, “NOVEL PEPTIDES AND COMBINATION OF PEPTIDES FOR USE IN IMMUNOTHERAPY AGAINST VARIOUS TUMORS” (immatics biotechnologies GmbH, priority 2015, published 2016).

B1: LDSEALLTL (peptide)
peptide: LDSEALLTL
B2: KLIGNIHGNEV (peptide)
peptide: KLIGNIHGNEV
B3: QIVELIEKI (peptide)
peptide: QIVELIEKI
B4: VLSTRVTNV (peptide)
peptide: VLSTRVTNV
B5: VLLGSVVIFA (peptide)
peptide: VLLGSVVIFA
B6: AMFPDTIPRV (peptide)
peptide: AMFPDTIPRV
B7: FVMEGEPPKL (peptide)
peptide: FVMEGEPPKL
B8: GLAEFQENV (peptide)
peptide: GLAEFQENV
B9: SLYALHVKA (peptide)
peptide: SLYALHVKA
B10: QLVQRVASV (peptide)
peptide: QLVQRVASV
B11: ALLEEEEGV (peptide)
peptide: ALLEEEEGV
notes: also called MAGEA4-003
B12: IKVTDPQLLEL (peptide)
peptide: IKVTDPQLLEL
B13: GLTEKTVLV (peptide)
peptide: GLTEKTVLV
B14: SLMEKNQSL (peptide)
peptide: SLMEKNQSL
B15: TLHDQVHLL (peptide)
peptide: TLHDQVHLL
notes: also called ESR1-001
B16: LLPSIFLMV (peptide)
peptide: LLPSIFLMV
B17: TLYPGRFDYV (peptide)
peptide: TLYPGRFDYV
B18: YLYELEHAL (peptide)
peptide: YLYELEHAL
B19: SLYAGSNNQV (peptide)
peptide: SLYAGSNNQV
B20: VLQQESNFL (peptide)
peptide: VLQQESNFL
B21: LKVLKADVVL (peptide)
peptide: LKVLKADVVL
B22: TIGIPFPNV (peptide)
peptide: TIGIPFPNV
B23: KQMSISTGL (peptide)
peptide: KQMSISTGL
B24: FLLDKPQDL (peptide)
peptide: FLLDKPQDL
B25: SLSEKSPEV (peptide)
peptide: SLSEKSPEV
B26: ILAEEPIYI (peptide)
peptide: ILAEEPIYI
B27: NLLIDDKGTIKL (peptide)
peptide: NLLIDDKGTIKL
B28: HMSGKLTNV (peptide)
peptide: HMSGKLTNV
B29: RLYGYFHDA (peptide)
peptide: RLYGYFHDA
B30: VLMDEGAVLTL (peptide)
peptide: VLMDEGAVLTL
B31: TVLEEIGNRV (peptide)
peptide: TVLEEIGNRV
B32: GLAFLPASV (peptide)
peptide: GLAFLPASV
B33: AMLASQTEA (peptide)
peptide: AMLASQTEA
B34: KMISAIPTL (peptide)
peptide: KMISAIPTL
B35: YLADTVQKL (peptide)
peptide: YLADTVQKL
B36: ALGDKFLLRV (peptide)
peptide: ALGDKFLLRV
B37: AVPPPPSSV (peptide)
peptide: AVPPPPSSV
B38: RVLPGQAVTGV (peptide)
peptide: RVLPGQAVTGV
B39: SLNKQIETV (peptide)
peptide: SLNKQIETV
B40: ALDTTRHEL (peptide)
peptide: ALDTTRHEL
B41: HLQEKLQSL (peptide)
peptide: HLQEKLQSL
B42: KLLDKPEQFL (peptide)
peptide: KLLDKPEQFL
notes: also called FMN1-001
B43: TLDRNSLYV (peptide)
peptide: TLDRNSLYV
B44: VIIKGLEEI (peptide)
peptide: VIIKGLEEI
B45: KLMDPGSLPPL (peptide)
peptide: KLMDPGSLPPL
B46: SLLNQPKAV (peptide)
peptide: SLLNQPKAV
B47: GLLENSPHL (peptide)
peptide: GLLENSPHL
B48: AILNVDEKNQV (peptide)
peptide: AILNVDEKNQV
B49: LLLESDPKVYSL (peptide)
peptide: LLLESDPKVYSL
B50: SLDKDIVAL (peptide)
peptide: SLDKDIVAL

target: T1, HLA-A*02:01 (human); experiment: UV ligand-exchange ELISA (anti-b2m); ++ = exchange yield >=20%
T1 construct: MHC monomers captured on streptavidin plates; the UV-sensitive peptide is cleaved and exchanged with the test peptide; also called peptide-receptive MHC molecules; MHC class I
Text: Candidate peptides for T cell based therapies according to the present invention were further tested for their MHC binding capacity (affinity). The individual peptide-MHC complexes were produced by UV-ligand exchange, where a UV-sensitive peptide is cleaved upon UV-irradiation, and exchanged with the peptide of interest as analyzed. Only peptide candidates that can effectively bind and stabilize the peptide-receptive MHC molecules prevent dissociation of the MHC complexes. To determine the yield of the exchange reaction, an ELISA was performed based on the detection of the light chain (β2m) of stabilized MHC complexes. The assay was performed as generally described in Rodenko et al. (Rodenko et al., 2006).
96 well MAXISorp plates (NUNC) were coated over night with 2 ug/ml streptavidin in PBS at room temperature, washed 4× and blocked for 1 h at 37° C. in 2% BSA containing blocking buffer. Refolded HLA-A*02:01/MLA-001 monomers served as standards, covering the range of 15-500 ng/ml. Peptide-MHC monomers of the UV-exchange reaction were diluted 100 fold in blocking buffer. Samples were incubated for 1 h at 37° C., washed four times, incubated with 2 ug/ml HRP conjugated anti-β2m for 1 h at 37° C., washed again and detected with TMB solution that is stopped with […]. Absorption was measured at 450 nm. Candidate peptides that show a high exchange yield (preferably higher than 50%, most preferred higher than 75%) are generally preferred for a generation and production of antibodies or fragments thereof, and/or T cell receptors or fragments thereof, as they show sufficient avidity to the MHC molecules and prevent dissociation of the MHC complexes.

Peptide exchange yield, 20 to 50%:
B1
B2
B3
B4
B5
B6
B7
B8
B9
B10
B11
B12
B13
B14
B15
B16
B17
B18
B19
B20
B21
B22
B23
B24
B25
B26
B27
B28
B29
B30
B31
B32
B33
B34
B35
B36
B37
B38
B39
B40
B41
B42
B43
B44
B45
B46
B47
B48
B49
B50
